We go through three substances from US20090042785A1.

For experiment [1], the target named is human CTLA-4-Fc (Chimerigen) (human) (UniProt P16410). Briefly: competition FACS: HuCTLA4-Ig 5 ug/ml (as printed on the axis) pre-incubated with the antagonist, then staining of P815 cells transfected with human B7.2; blocked ligand B7.2.
For experiment [2] the target is unchanged. The experiment can be described thus: FACS competition: inhibition of 2.5 nM hCTLA-4 Fc binding to Raji cells (B7.1, B7.2).
The target of experiment [3] is human CTLA-4 on the cell surface (transfected CHO and A431 cells; CD152-expressing cells of human tonsil) (human) (UniProt P16410). The experiment can be described thus: indirect immunoperoxidase staining of cryosections; spleen HT337, mononuclear cells, white pulp (membrane, frequent); 5 µg/mL [Fig.20 continued, no label on the sheet].
The target is the same in experiment [4]. Briefly: indirect immunoperoxidase staining of cryosections; CD152-expressing cells in human tonsil (positive control tissue), source HT343; 5 µg/mL; scale ± to 4+ (4+ = intense).
Experiment [5] shares this target. Briefly: indirect immunoperoxidase staining of cryosections; tonsil HT664, mononuclear cells, follicular>>interfollicular (membrane); 5 µg/mL [Fig.20 continued, no label on the sheet].
Experiment [6] shares this target. Briefly: indirect immunoperoxidase staining of cryosections; kidney HT268, mononuclear cells, interstitial, inflammatory (membrane, rare); 5 µg/mL [Fig.20 continued, no label on the sheet].
Experiment [7] concerns the target human CTLA-4-Fc (Chimerigen) (human) (UniProt P16410). The experiment can be described thus: competition FACS: 2.5 nM human CTLA-4 Fc pre-incubated with the antagonist, then staining of Raji cells; % inhibition of CTLA-4 Fc binding; blocked ligands B7.1 and B7.2.
In experiment [8] the target is human CTLA-4 on the cell surface (transfected CHO and A431 cells; CD152-expressing cells of human tonsil) (human) (UniProt P16410). The experiment can be described thus: indirect immunoperoxidase staining of cryosections; CD152-expressing cells in human tonsil (positive control tissue), source HT662; 5 µg/mL; scale ± to 4+ (4+ = intense).
Experiment [9] concerns the target mouse CTLA-4 Fc (Chimerigen) (mouse) (UniProt P09793). Briefly: FACS competition: inhibition of 2.5 nM mCTLA-4 Fc binding to Raji cells (B7.1, B7.2).

In the case of “anti-human CTLA-4 monoclonal antibody 14D3 (eBioscience)”, the IC50 (read off the curve) in experiment [1] amounted to 50 nM. Besides, the IC50 (commonly the concentration needed to halve the response being measured) in experiment [2] came to 1.9 nM.
For the substance “anti-human CTLA-4 monoclonal antibody BNI3 (Becton Dickinson)”, the staining intensity grade in experiment [3], in experiment [4], in experiment [5], in experiment [6] and in [8] was 4 + throughout. Also, the IC50 (read off the curve) in experiment [7] was determined as 2 nM. In experiment [2], this substance displayed an IC50 of 2.1 nM.
“anti-mouse CTLA-4 monoclonal antibody 4F10 (hybridoma UC10-4F10-11, ATCC #HB-304)” returned an IC50 in experiment [9] of 4.1 nM.
